{"source": "patent US20230051715A1", "about": "(MABWELL THERAPEUTICS, published 2023)", "binders": {"B1": {"name": "Anti-C1s antibody hz2-7(H1L2) (antibody, V domains shown)", "VH": "EVQLLESGGGLVQPGGSLRLSCAASGFTFSNYFMNWVRQAPGKGLEWVSEIRLKFTNYATHYADSVKGRFTISRDDSKSTLYLQMNSLRAEDTAVYYCTRDYGSRNGYFDYWGQGTLVTVSS", "VL": "DIVMTQTPLSLPVTPGEPASISCRSSKSLLHSNGNTFLYWFLQKPGQSPQLLIYRMSNLASGVPDRFSGSGSGTDFTLKISRVEAEDVGVYYCMQHLEYPYTFGGGTKLEIKR", "notes": "Humanized, human IgG1 / kappa; also called hz2-7(1L2)"}, "B2": {"name": "Anti-C1s antibody hz2-8 (H1L2 G80A) (antibody, V domains shown)", "VH": "QVQLVQSGAEVKKPGASVKVSCKASGFNIKEYYMHWVRQAPEQGLEWMGWIDPENADTIYAQKFQGRVTITADTSTNTAYMELSSLRSEDTAVYYCARSRLFFAYWGQGTLVTVSS", "VL": "DIQMTQSPKSLSASVGDRVTITCRASQDVRTALDWYQQKPGQSPKLLIYSASYRYSGVPSRFSGSGSGTDFTLTISSLQPEDFATYYCQQQYTTPYTFGQGTKLEIKR", "notes": "Humanized variant with G80A in HC CDR2 (already in the entry), human IgG1 / kappa"}, "B3": {"name": "Anti-C1s antibody hz2-8 (H1L2 G80A/T82A) (antibody, V domains shown)", "VH": "B2 VH with T58A", "VL": "B2 VL", "notes": "Humanized variant with G80A and T82A in HC CDR2 (already in the entry), human IgG1 / kappa"}}, "key": {"[1]": {"target": "T1, human C1s mutant M9 (K336G, D343Y & E351A) (human, UniProt P09871 16-688)", "T1 construct": "The entry is the mutant itself", "T1 sequence": "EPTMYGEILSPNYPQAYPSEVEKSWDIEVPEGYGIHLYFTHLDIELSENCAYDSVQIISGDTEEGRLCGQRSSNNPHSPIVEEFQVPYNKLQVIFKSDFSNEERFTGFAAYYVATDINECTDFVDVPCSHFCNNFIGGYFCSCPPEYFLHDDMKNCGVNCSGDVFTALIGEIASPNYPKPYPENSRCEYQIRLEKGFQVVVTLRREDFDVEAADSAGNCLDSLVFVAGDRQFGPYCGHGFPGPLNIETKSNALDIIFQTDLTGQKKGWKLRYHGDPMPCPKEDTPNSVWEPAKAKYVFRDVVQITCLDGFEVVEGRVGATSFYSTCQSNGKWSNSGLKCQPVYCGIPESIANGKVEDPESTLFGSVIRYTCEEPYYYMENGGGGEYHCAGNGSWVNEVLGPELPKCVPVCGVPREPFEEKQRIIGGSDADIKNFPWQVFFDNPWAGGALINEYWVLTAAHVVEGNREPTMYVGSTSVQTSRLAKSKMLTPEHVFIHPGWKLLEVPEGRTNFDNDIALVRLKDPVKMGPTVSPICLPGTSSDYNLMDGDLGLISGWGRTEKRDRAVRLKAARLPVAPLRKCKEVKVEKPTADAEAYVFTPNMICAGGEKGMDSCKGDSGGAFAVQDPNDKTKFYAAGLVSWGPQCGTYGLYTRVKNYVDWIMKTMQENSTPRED", "assay": "ELISA, plate coated with human C1s mutant M9: K336G, D343Y, E351A, OD450nm; the curve reaches only OD450 about 0.7 at 1000 ng/ml", "protocol": "(§1) ELISA was carried out by first coating 96-well plates with 200 ng/well of full-length or truncated C1s proteins overnight. The next morning, plates were blocked with SuperBlock T20 blocking buffer (Thermo Scientific 37536) for 1 h with gentle shaking. Then, various concentrations of anti-C1s antibodies diluted in SuperBlock T20 blocking buffer were added to the plates and incubated for 1 h with gentle shaking. Mouse IgG (Sigma-Aldrich 15381) and human IgG1 (BioXCell BP0297) were used as negative controls. The plates were washed before incubating with HRP conjugated secondary antibodies diluted in SuperBlock T20 blocking buffer (goat anti-mouse IgG (H+L) cross-adsorbed secondary antibody HRP (Invitrogen G-21040) or goat anti-human IgG antibody, HRP conjugate (Millipore AP309P)) for 1 h with gentle shaking. At last, the plates were washed and color developed with ELISA liquid HRP substrate (Sigma-Aldrich), followed by stopping the reaction with addition of 1M H₂SO₄ in the same volume as the ELISA liquid substrate. Bound antibody was measured by absorbance at OD₄₅₀ₙₘ.\nBinding of anti-C1s antibodies to mutants M1-M20 of human C1s was measured by ELISA as described in Example 4, and results are shown in FIGS. 6B-6U. […]"}, "[2]": {"target": "T2, human C1s deletion mutant 3 (NHCΔ33) (human, UniProt P09871 16-404)", "T2 construct": "C-terminal 6xHis tag; also called human C1s (NHCΔ33); C1s (NHCΔ33)", "T2 sequence": "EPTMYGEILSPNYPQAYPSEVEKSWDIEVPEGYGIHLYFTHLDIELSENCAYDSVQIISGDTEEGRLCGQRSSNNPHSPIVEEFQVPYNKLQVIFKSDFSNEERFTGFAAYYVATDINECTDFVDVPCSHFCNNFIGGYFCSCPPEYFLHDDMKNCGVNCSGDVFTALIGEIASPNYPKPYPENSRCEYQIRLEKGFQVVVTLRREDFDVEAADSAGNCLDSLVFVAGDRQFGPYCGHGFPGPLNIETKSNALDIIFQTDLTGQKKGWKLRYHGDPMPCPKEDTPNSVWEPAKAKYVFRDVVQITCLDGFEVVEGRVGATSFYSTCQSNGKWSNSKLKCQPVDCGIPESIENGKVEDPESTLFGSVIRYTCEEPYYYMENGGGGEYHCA", "assay": "ELISA, C1s fragment coated on plate; hz2-8(H1L2 G80A), first of the two values", "protocol": "as §1\nBinding of various anti-C1s antibodies to human C1s (NHCΔ33) (SEQ ID NO: 111) was carried out by ELISA as described in Example 4, and results are shown in FIG. 6A."}, "[3]": {"target": "T3, rat C1s (produced in house) (rat, UniProt Q6P6T1 16-688)", "T3 construct": "also called RaC1s", "T3 sequence": "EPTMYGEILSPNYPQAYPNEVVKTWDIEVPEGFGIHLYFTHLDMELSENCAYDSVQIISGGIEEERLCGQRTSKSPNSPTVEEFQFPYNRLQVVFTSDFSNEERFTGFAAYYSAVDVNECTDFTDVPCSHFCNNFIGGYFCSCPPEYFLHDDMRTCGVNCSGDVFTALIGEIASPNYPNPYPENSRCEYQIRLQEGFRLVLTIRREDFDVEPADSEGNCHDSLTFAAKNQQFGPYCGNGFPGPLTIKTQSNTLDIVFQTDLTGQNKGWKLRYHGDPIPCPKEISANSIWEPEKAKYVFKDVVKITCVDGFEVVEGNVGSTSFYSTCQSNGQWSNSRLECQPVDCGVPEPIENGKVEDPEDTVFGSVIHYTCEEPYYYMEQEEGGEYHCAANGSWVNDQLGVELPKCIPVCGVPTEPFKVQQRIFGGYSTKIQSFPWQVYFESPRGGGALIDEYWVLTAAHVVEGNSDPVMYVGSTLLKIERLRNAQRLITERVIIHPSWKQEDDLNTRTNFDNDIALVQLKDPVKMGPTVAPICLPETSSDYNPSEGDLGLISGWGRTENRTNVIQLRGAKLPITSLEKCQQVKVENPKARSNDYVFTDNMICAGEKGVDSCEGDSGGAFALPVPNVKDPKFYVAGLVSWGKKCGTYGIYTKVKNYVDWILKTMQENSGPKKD", "assay": "BLI (Octet RED96e), antibody on AHC biosensor; C1s Species: Rat; R^2 0.9718", "source_text": "At last, analyte was dissociated in 1×KB for 360 sec. Data analysis was done using OCTET® Data Analysis HT Software (Sartorius AG)."}}, "note": "Changes are numbered by the printed parent chain. Numbers in names are those of the source.", "data": [{"binder": "B1", "values": [{"measurement": "EC50", "setting": "[1]", "value": 0.013, "unit": "µg/mL"}]}, {"binder": "B2", "values": [{"measurement": "EC50", "setting": "[2]", "value": 0.008, "unit": "µg/mL"}]}, {"binder": "B3", "values": [{"measurement": "Kd", "setting": "[3]", "value": 16, "unit": "nM"}, {"measurement": "koff", "setting": "[3]", "value": 0.0012, "unit": "s⁻¹"}, {"measurement": "kon", "setting": "[3]", "value": 75000, "unit": "M⁻¹ s⁻¹"}]}]}
